Reference: the NTF2 design screens of Basanta et al. (2020)

assay: protease stability score; higher = more stable; yeast display proteolysis, trypsin and chymotrypsin;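 further: relative to predicted unfolded state with 0 unfolded-like and 1 meaning tenfold more protease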

Row | Sequence | protease stability score
1 | KEKEEIARMMLKELIKTIRTGDPEEWHKLFDPHVLIVIDGREIHGMEEHTRLLRELGIDRIELHTQHERHVSVQGDKVHLDIDVDGMFDGQKRRFHMHIDALKVNGQWVIQYIEIR | 1.96
2 | DDLEREAKTMVDRFRELMATGDFEEREHLVDPNTRWHVNGQDFHGRELITEILIKKFEDLGVEKITFRVERIRVVGDKIEVDGVLIIDGREIDTRLNWTKVNGRWIIKFESEK | 0.927
3 | SEKEEHLHELTRLLVEWFITGDEEDNLEQADPHVRMILIVDGRIIERHGREKLYEEAHRHLKRLGIDHYRIKHVDIQGEKVKINGQLEFNGVIYDARLTFVVINGKLHQEYRSEE | 1.64
4 | SEEDDDSREVLELFVRLMVTGDFHELAELLDPNVRTHINGKERVGREQMIKILKRLFDEWGVDRVIVHVKHIDVQGEKAHMDGTLIYGDKMQKSHVTLIYVNGRLERIHIELN | 1.13
5 | DEDERLSRELLKRWMTSIMTGDETSSQHLADPHDRIDINGREFHGRELATWVAHHLRIDSIQERHQEIQGEKLIVLGETDYIVDGVKQIRRTEYILRKFNGRWFFESIIFR | 0.9
6 | DEREEMVERFLTEWLRSLVTGDWEDSEKLFDPNVRIHVNGREFHGRHEAIKHFHELRIHKIELKSIDIQGNKAHVDVEVDGNVNGQNRIIKVNLFFKKVNGRWYFEQVEIH | 1.24
7 | SKEEEHAYRVMEIILKQHLTGDEEEISRLLDPHVKMDVDGVILHGRENASRWLFEWIRFFKGLRLHIHIEDIQVQGEKSHHHTRLHITINGRTQNYRFKVHAVVVNGQIKHFELDWD | 1.39
8 | DDSSELLRKLLEELLRAYKTGDFDTLIEFFDPDVKLEFNGREVHGMDHFISEHRHFIRRFPGIRIHIDDVKWHTQGDKAQLHMDGTEDFDGKRRRVELIFIIEKFDGRWFFSSIRWHNI | 1.53
9 | TEEEEILHEELRRHKEALETGDEDRLRHLIDPRARMDVNGREFHGMEHIVHFLVEFLLKFKNVRFEIKDFTKIGEYIYVDIHIIVDGRRHHMTVVALKVDGRWRNRHLHID | 1.18
10 | DEHEENVRKDIKEHEETEKTGDEKAYLEMADPHVKVDIDGVDLHGMERVTNFYRELLHKFPNIRIHTRHVDVQGEKVHVETELEWNGVKLETELVWVKINGRWLTHEIHIR | 1.2
11 | HEHEEELREFLRLWIEDLVTGNEDSLREFADPNMRIEQGDKEHHGREQFLEIMHRLVREARLEIILRRMNIFDGKANIDGELMIRIGDKHIRHHLRIIILKIDGVWLLKSIHVR | 1.94
12 | SEEDEVYEEALKITERLERTGNEEDLRTYADPHAKLRFIVDGKTIEIHGREDFVHEVVRYWKRFKNLTVRIERVEFQGDKLHLIGRLHIDGREVIIHMLSVKFNGRWFVENLHIEFV | 1.41
13 | DEEEELYRIALEESIRTLKTGDEDRVHELFDPRARIIVNGREFHGRERATKWAFDWIHKVKNMRFELRDFRIQGDKIIIHGKLHVNGQETEIIIIIHKIDGRWLIEQVEVR | 1.4
14 | SEDEKVVFQILRLWVDLLLTGDEEEMLHLADPNTRVEIGEFDDHGREAMEFMIRRFDVIEDIKIRDIRTIDGKVQIHGEVHSHFNGRRFTIHVEIIARKIDGRWKLTSMHFI | 2.08
15 | DEDTKKAEEVLRMFDEAFRTGDEDILRELMDPNVRYVINGREFHGREEVTNAMRELHHRFDHFKSTHIKDHKIQGDKMDVHSTLTYHVNGKDIHVDSREVWVKVNGKWHLRKIIIH | 2.24
16 | SEDHDTDRHIMDLILRDVFTGDEEEFTRLADPNVKHIDENHFSVGWENVLEMLRFWEDEARMTDIKIHDLEIQGDKIVSHVHIDGEVNGKRRELEVIIYILKVDGKWHLEYFEVR | 2.2
17 | TEDHERIKKHIEILMHNLKTGNFEALVRMADPHVRFRLVQGNFHDETHGRDAWREVLERLGIDHIEIRDIRIHLYDGRLEMRIDGISRFNGREHKVELIIIIDKIDGRWRISEVELRIE | 2.15
18 | SETEEEARKMIELLVEAWLTGDEHTLERMLDPHVKIIIDGRELHGWKVLAERIKHLRYEHFEFELHSVETQGDKIIIRGIVRSDLRVGDKEEHTHLEVIIIITKVNGRWVVHSIEIR | 1.68
19 | DEEKEDIERYNRLYFNASTTGDEDTLKRLADPHVRIHVGDKDQVGMEHLSTRLLELRIEVEFDHRHIEVQGDKVTVDGTLTLHIEIGEKRYERRVDLILHWHKIDGRWLIEQVDML | 1.27
20 | SDEEERLERVSELLLHAIETGDWRILAELADPHVRLEIGDKEIHGREIVVDLIRKEYDKYKNMRITNEDFDVQGNKTEWHVNIHIGDKEVRIHIYNVVINGKIRRRHIHIR | 1.23
21 | DEQTELEDKMRELIMRTWDTGDEKLLQELADPDARAHFNINGQTDSRHGREEILRLFIKLWEILGVDHLHLQHVSVIDGKFHIHQEVRYDGKVTFLHIHVWIVNGRNRQFNVHIEHR | 0.407
22 | DEIEHEVERVVREWMRAYITGDEDTLQHLLDPHVLSVIDGVNIHGMENVTEYLRRHLEKIKNVQIEDMRIHRLDIQGNKLDLDTRLHITFNGVPEVLETRLILTKIDGKWWMHQVIIN | 2.42
23 | SEQHKIAQEMAERILELWQTGDEDTFRYLADPHYRLHIIINGKHHDHHGREEWDKWYRELLDRIDHVRLIWRSVETQGDKLRVDGELVLIIDGKRIVEKVHLEFRVIDGVLRHETIKVR | 1.48
24 | SEDEELFKRAIEKLIHDLLTGNFEMLEHLLDPHTRVDFNGKIMHGREFVEDIRERFPNLKLELRIDDSSVINGRANIIGTLHFNVNGKFSTHEVHYHVNKFNGKWYIEEVRIK | 1.32
25 | NEEEKRMVEEHEKFWNFVRTGDEDTVRDLIDPHARVIQGNKILHGWEEAVRWMKEIRIHDIRIHSSHEVDGRVTITGDMDFEFNGKRHILEVRIFLLKIDGRWIHTFIQID | 1.33

Row | Sequence | protease stability score
26 | SEDHEMVKKLIHDLMRARSTGDEEEFYKLLDPHVRSDINGQETHGREEFVHWFIRHHHEFGFDHVERVHLHHIELIGDKIHVDLIVHITVGEYTIVTHEHLVIWKIDGRWVLRSMDLH | 1.43
27 | DEEEKTFEQIVRHLIDDLVTGDWEKLRDYFDPHVRVEIGDKRIVGRETLVDELSHWRVKHVRVELHDYRVINGRIEVHGSVDFRGNIDGRELRHSYETKIIFDKINGRWTLQSHHVL | 1.21
28 | DEEKTIHNHLMELVVRAFLTGDEELWSNLADPDTKEIIDGKTNVGREEVAKFWKDLVHKFKNARWHITIKRVDVIDGQVRQNSHLEIRYGDKHFHLETEDHLYVINGRLKQFEFRVN | 1.18
29 | DDVHEDATRAIKILKHNLETGDEDKLMTMMDPNVRFEDGNKHAHGREQTVQVLLEIIEKLGVSKFSHEIKDLKIVDGKLHLHGTLKVDGKTVDLEVVSLKINGRWLIKSIHLH | 1.19
30 | SEDHEDMDRMFDLLIKLLYTGDEESLEELFDPNTRIDVGDKVLHGRELAVKHVKDRLRRADHIEFHIKDRRAIDGRLEIDMELRIHVDGKDIIIRTKVHLEKVNGRWLIHHIKVH | 1.38
31 | DEERELLKFFLKAWSKALVTGDEQTLLDLVDPNARNVIGDKDLIGREFLEKVLREMRITEVHIEDIKFQGEFVTSDLRMRVRQGDKEFDIRVRLVVYKYDGRWVFKTFHME | 2.23
32 | SEEEETAYKVMEEVISAWLTGDEDLFNELADPDVRFELEFNGKKIDIIGRELVSKYWRDVIDHIRVEVVLRDYRMIDGRIETETEIYVEVGDKSHSVETRLHMEVIDGRLRTVKIKVR | 2.22
33 | SEVEEDIRKWLKEHTDSIRTGDEERMLRNMDPHVRVDIDGVEHHGWEHLEEFIHRLTKKIKNMRVDWHRVRFQGDKAEIDGELDIDGRVTHVHIHSIKVDGRWYIKEIYIT | 1.24
34 | DEEHKETEDIAKYFWERFLTGDWKTFKEFADPHVKIDVDGVEHIGREEASKLMRDWDRRFKNVRHTERHHDVIDGKFELHGESNINGVHIKLDVRIVIVDGRLHSVHVEIDRR | 1.26
35 | SEQERKVREWTEEEIRWFLTGDEDIWSHFADPNARSVHHIGNKTIHTHGMEDVTRVIRELLQELGADHRTVHELEIQGDKSTVNLEIRIGDKTYEVHIIIIIINGKRKYHIVHFRVQ | 0.982
36 | EEIHKHLKELFVRWMKELVTGNEDSFKDLFDPHTRIHMHIGDKEIHAHGRKHLEDMILRFKGLRVEFRVEDSTAIGDKAHADFHLIIHVDGKNITTREEVRISVIDGKIREVHHHIN | 1.36
37 | DEDRHYIEQALEILEHNIQTGNWEIIARLLDPNMRLHIGDKDIHGREESADIIRHWIHRFPNLRVRIDHFEIYGNKVIFRGTMDFDGQRHDISIFSHKVNGRWLIKSIEYR | 1.59
38 | DEHKDLAHKAITNFIEWTETGDFEMFLKLFDPNMRLRVDGQHHHGWHDVFRVFREMGYEIKSVKMDDVEIQGEKITVDLRVHVDINGQHEDIKTRYFFSKYDGKWIIEQIQVV | -0.276
39 | SDEEHVSRIALEIDIWLKETGDEHLLRHYLDPDTRSHFNGRSVHGMDILIKILHHWRIHDLEVKRMHLVGDFVELDIRVDGTFNGRRINMEQIIHVEKIDGQWHLKEVRIH | 1.54
40 | DEEEHYLREYLRIVDEELHTGDEKLLAKLLDPEVRVDFNGVVNIGWETVRRHVHHIWMIFRDSKIHDVKVQGDKMIADGRVDVEIIVNGRTHRLELDTNLIFRKVNGRWVMQEIKIG | 2.25
41 | SDTEHDARRVIEELSKALLTGDWRRIEELLDPNTRWVFNGQEFHGMEIVIKVLIHLRRHMTHVEFHDIHTIDGRVHSDTEFDVSLIINGKTERTRVHVEFIIRKVNGRWRIEEVRFE | 2.25
42 | EEEKEHLTHMAKLFHDLTQTGDEHLFNHLADPHVKIDVHIGDKDLHFHGREEFLWWILEIIEQWRIEFDLRDTIPVNGKVHVKTDIKINVNGREHRIETRLHLVIVNGKLKESEIRVS | 1.69
43 | DQEERIAHKVAEFFLHALLTGDERLLTEYFDPHVRIIIHINGVEIRYHGREEWVEWLRDILRRFDVVRFHIRDIRNIGNKSIVHSEHREHVNGKSRSTRTELLIDVVDGRIHEVEIRIE | 1.44
44 | DELEHWAHIILEEFTRLYTTGDEETFNHLADPDTRLFFNGREFIGREKFIDAWRHLRYKEIRLRDHQVDVQGDKMRMILHMRVNSNINGREVEQDVHLEILTKKIDGRWRLKEVHFQTH | 2.39
45 | NEDEEVERKWLEFIRHALHTGDERILHELLDPHAQLIYGDKHIIGREEMTRQFIELGVDHMEDKRVHHQGDKIHQDGTEHVNGKERKVRFVVAKVNGRWIWERMHVI | 1.03
46 | DEDRRHADEVLELFSEAFLTGNEEEMRKLADPHVRIDFNGRLKIGMETYKEEMDRFDHTEMRLESKHVHVFDGRVRIDGRLRIILRIGDKEIRHDHQVDILITKVDGRWIIKSMHIE | 2.53
47 | SEEERLTEEFLTKFEEILETGDEELLWRLIDPHARTLFDGQEFHGREDFVMIFDELVRHAGFDVRHIHSIHVQGDKIEVRSTMVVNGRNFEIRLHLRKINGRWHIEEIEIR | 2.7
48 | SEVQELAERMFRFLLKVFETGNEDRLTELMDPNTLQIIGDKRNHGRDLYLRTVFEKVEHARMRIEFKEVHVINGQINVDGILWLEFDGRRIFFRVHLELTVVNGVLKEEHVTIH | 1.56
49 | SEDEEMAKESVEHVIHALETGDFELFHKMADPSVQLDIDGREFIGWEEVRKHLEELRIERVHIRRLHIELINGQVRSTSDIEMDIRIGDYKIRTEVKVHIIIDKVNGRWRLRSMKIINH | 1.57
50 | DERDEYLHEWTRLLIELFETGNFEFLVEMMDPNVQIDIGDKHFIGWELAVHFLEEFLRQFKNARWEITRFRRYDGRIEMDTIMRINGREIKVKIIVIVIDGRVKSRHEEYR | 0.595
